This note sets out measurements from paper PMC11215305.

The test has as its target RadD of F. nucleatum subsp. nucleatum ATCC 23726 (Fusobacterium nucleatum subsp. nucleatum ATCC 23726 (endogenous)). Put plainly: flow cytometry on cells. In general terms: A flow cytometer gives signals particle by particle.

“human Siglec-7-Ig (from UniProt Q9Y286 19-353) (Fc fusion)” gave a percent reduction of binding with 5 mM arginine of 31%.
